Measured values taken from paper PMC8262916.

Experiments:
[1] = molecular target: Nsp12T;Nsp7;Nsp8 (SARS-CoV-2;SARS-CoV-2;SARS-CoV-2, UniProt P0DTD1;P0DTD1;P0DTD1 4393-5324;3860-3942;3943-4140, ||); assay: EMSA
[2] = molecular target: Nsp12A;Nsp7;Nsp8 (SARS-CoV-2;SARS-CoV-2;SARS-CoV-2, UniProt P0DTD1;P0DTD1;P0DTD1 4393-5324;3860-3942;3943-4140, ||); assay: EMSA; 2 mM Mg2+; 100 nM RNA

UUUUCAUGCUACGCGUAGUUUUCUACGCG (structured_RNA) [4N RNA hairpin scaffold]
binding result [1]: binds | binding result [2]: binds
